These results are taken from PMC11336091.

This series deals with T1, BmFoxO (Bombyx mori, UniProt H9BVM3 1-512).
T1 sequence: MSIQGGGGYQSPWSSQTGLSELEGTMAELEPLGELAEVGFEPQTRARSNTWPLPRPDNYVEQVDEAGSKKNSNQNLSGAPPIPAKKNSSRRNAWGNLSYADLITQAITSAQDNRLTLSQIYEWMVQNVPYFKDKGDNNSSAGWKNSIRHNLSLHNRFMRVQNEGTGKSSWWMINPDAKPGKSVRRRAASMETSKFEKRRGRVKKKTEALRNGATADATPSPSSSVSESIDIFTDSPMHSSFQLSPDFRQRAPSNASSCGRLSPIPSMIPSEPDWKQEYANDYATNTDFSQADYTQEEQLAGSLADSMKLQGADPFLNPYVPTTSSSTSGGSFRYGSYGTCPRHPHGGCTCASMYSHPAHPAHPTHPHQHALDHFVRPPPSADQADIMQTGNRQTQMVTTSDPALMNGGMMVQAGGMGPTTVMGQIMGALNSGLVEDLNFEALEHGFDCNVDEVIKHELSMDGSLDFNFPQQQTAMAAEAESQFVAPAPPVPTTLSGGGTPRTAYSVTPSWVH
Briefly: EMSA. Background: A gel shift assay detects complexes by their altered migration in electrophoresis.

B1: BmOSER1 promoter EMSA probe (dsDNA)
DNA 1: TGTATTAAAAACTTATATAAACTGTGATCT
DNA 2: AGATCACAGTTTATATAAGTTTTTAATACA
Regarding B1, the binding result is reported as “binds”.
